Here are results for four molecules from patent US9670514B2, “Method for producing polysaccharide” (SANYO CHEMICAL INDUSTRIES, LTD., priority 2011, dated 2017).

What all share (assay type): biochemical
Holding throughout (conditions): 30° C., pH 7.0

A short description of series [1]: Specific activity of chondroitin synthase aqueous solution. The method, then:
Reaction solution (11) was prepared by adding 10 μL of chondroitin synthase aqueous solution (B-2) obtained in Preparation 11 to 1 mL of aqueous solution T (50 mM phosphate buffer (pH of 7.0) containing 1 mM uridine diphosphate-glucuronic acid (^14C-labeled radioactive isotope-containing uridine diphosphate-glucuronic acid; radioactivity of 300 mCi/mmol), 1 mM uridine diphosphate-N-acetylgalactosamine, 100 mM sodium chloride, 10 mM magnesium chloride, 10 mM dodecylmaltoside, and 5 mM oleic acid). Three such reaction solutions (11) were prepared and allowed to react at 30° C. for 5 minutes, 10 minutes, and 15 minutes, respectively. Chondroitin was separated from the unreacted substrate by paper chromatography using filter paper. Subsequently, the origin was cut out and immersed in a liquid scintillation cocktail, and the radioactive isotope was then measured using a liquid scintillation counter. The yield of chondroitin was calculated from the amount of uptake of ^14C-labeled glucuronic acid. The results were 1.7 μg after 5 minutes, 3.1 μg after 10 minutes, and 4.4 μg after 15 minutes. The specific activity of chondroitin synthase aqueous solution (B-2) was calculated from the relationship between the yield of chondroitin and the reaction time. The result was 0.15 U/mL.

Series [2] can be described thus: Specific activity of starch synthase aqueous solution. The procedure:
Reaction solution (13) was prepared by adding 10 μL of starch synthase aqueous solution (B-4) obtained in Preparation 13 to 1 mL of aqueous solution V (50 mM phosphate buffer (pH of 7.0) containing 100 mM uridine diphosphate-α-glucose (^14C-labeled radioactive isotope-containing uridine diphosphate-α-glucose; radioactivity of 300 mCi/mmol), 100 mM sodium chloride, 10 mM magnesium chloride, and 5 mM oleic acid). Four such solutions (13) were prepared and allowed to react at 30° C. for 5 minutes, 10 minutes, 15 minutes, and 20 minutes, respectively. Starch was separated from the unreacted substrate by paper chromatography using filter paper, and then the origin was cut out and immersed in a liquid scintillation cocktail. The radioactive isotope was then measured using a liquid scintillation counter. The yield of starch was calculated from the amount of uptake of ^14C-labeled glucose. The results were 1.3 mg after 5 minutes, 2.5 mg after 10 minutes, 3.8 mg after 15 minutes, and 5.2 mg after 20 minutes. The specific activity of starch synthase aqueous solution (B-4) was calculated from the relationship between the yield of starch and the reaction time. The result was 0.15 U/μL.

Series [3] can be described thus: Specific activity of hyaluronan synthase aqueous solution (14C-glucuronic acid uptake). The procedure: Reaction solution (1) was prepared by adding 10 μL of hyaluronan synthase aqueous solution (B-1) obtained in Preparation 1 to 1 mL of aqueous solution S (50 mM phosphate buffer (pH of 7.0) containing 1 mM uridine diphosphate-glucuronic acid (labeled radioactive radioactivity of 300 mCi/mmol), 1 mM uridine diphosphate-N-acetylglucosamine, 100 mM sodium chloride, 10 mM magnesium chloride, 10 mM dodecylmaltoside, and 5 mM oleic acid). Four such reaction solutions (1) were prepared and allowed to react at 30° C. for 5 minutes, 10 minutes, 15 minutes, and 20 minutes, respectively. Hyaluronan was separated from the unreacted substrate by paper chromatography (developing solvent containing 1 M ammonium acetate (pH of 5.5) and ethanol at a 7:13 ratio, hereinafter the same) using filter paper (Whatman No. 3 MM, hereinafter the same), and then the origin was cut out and immersed in a liquid scintillation cocktail. The radioactive isotope was then measured using a liquid scintillation counter. The amount of hyaluronan synthesis was calculated from the amount of uptake of ^14C-labeled glucuronic acid. The results were 1.6 mg after 5 minutes, 2.9 mg after 10 minutes, 4.2 mg after 15 minutes, and 5.5 mg after 20 minutes. The specific activity of hyaluronan synthase aqueous solution (B-1) was calculated from the relationship between the amount of hyaluronan synthesis and the reaction time. […]

Series [4] can be described thus: Activity of uridylyltransferase (G-1) to produce uridine diphosphate-N-acetylglucosamine. The method, then: (§1) Reaction solution (10-1) was prepared by adding 10 μL of uridine triphosphate-monosaccharide-1-phosphate uridylyltransferase aqueous solution (G-1) obtained in Preparation 10 to 1 mL of aqueous solution (50 mM phosphate buffer (pH of 7.0) containing 100 mM sodium chloride, 10 mM magnesium chloride, 10 mM uridine triphosphate, and 10 mM N-acetylglucosamine-1-phosphate). Three such reaction solutions (10-1) were prepared and allowed to react at 30° C. for 5 minutes, 10 minutes, and 15 minutes, respectively. As for the quantity of the produced uridine diphosphate-N-acetylglucosamine, the product was detected with a UV light (260 nm) in HPLC. The activity of uridine triphosphate-monosaccharide-1-phosphate uridylyltransferase to produce uridine diphosphate-N-acetylglucosamine was determined from the amount of uridine diphosphate-N-acetylglucosamine production. The result was 0.1 U/mL.

Series [5] can be described thus: Activity of uridylyltransferase (G-1) to produce uridine diphosphate-glucuronic acid. The procedure:
as §1
The activity of uridine triphosphate-monosaccharide-1-phosphate uridylyltransferase to produce uridine diphosphate-glucuronic acid was determined in a similar manner as described above, except that an aqueous solution containing “10 mM glucuronic acid 1-phosphate” was used in place of “10 mM N-acetylglucosamine-1-phosphate” and “uridine diphosphate-glucuronic acid” was quantitated in place of “uridine diphosphate-N-acetylglucosamine”. The result was 5 U/μL.

B1: chondroitin synthase aqueous solution (B-2): chondroitin synthase, SEQ ID NO: 11, derived from Pasteurella multocida (protein, listed as Pasteurella multocida)
chain: MNTLSQAIKAYNSNDYELALKLFEKSAETYGRKIVEFQIIKCKEKLSTNSYVSEDKKNSVCDSSLDIATQLLLSNVKKLTLSESEKNSLKNKWKSITGKKSENAEIRKVELVPKDFPKDLVLAPLPDHVNDFTWYKNRKKSLGIKPVNKNIGLSIIIPTFNRSRILDITLACLVNQKTNYPFEVVVADDGSKENLLTIVQKYEQKLDIKYVRQKDYGYQLCAVRNLGLRTAKYDFVSILDCDMAPQQLWVHSYLTELLEDNDIVLIGPRKYVDTHNITAEQFLNDPYLIESLPETATNNNPSITSKGNISLDWRLEHFKKTDNLRLCDSPFRYFSCGNVAFSKEWLNKVGWFDEEFNHWGGEDVEFGYRLFAKGCFFRVIDGGMAYHQEPPGKENETDREAGKSITLKIVKEKVPYIYRKLLPIEDSHIHRIPLVSIYIPAYNCANYIQRCVDSALNQTVVDLEVCICNDGSTDNTLEVINKLYGNNPRVRIMSKPNGGIASASNAAVSFAKGYYIGQLDSDDYLEPDAVELCLKEFLKDKTLACVYTTNRNVNPDGSLIANGYNWPEFSREKLTTAMIAHHFRMFTIRAWHLTDGFNENIENAVDYDMFLKLSEVGKFKHLNKICYNRVLHGDNTSIKKLGIQKKNHFVVVNQSLNRQGINYYNYDKFDDLDESRKYIFNKTAEYQEEMDILKDLKLIQNKDAKIAVSIFYPNTLNGLVKKLNNIIEYNKNIFVIILHVDKNHLTPDIKKEILAFYHKHQVNILLNNDISYYTSNRLIKTEAHLSNINKLSQLNLNCEYIIFDNHDSLFVKNDSYAYMKKYDVGMNFSALTHDWIEKINAHPPFKKLIKTYFNDNDLRSMNVKGASQGMFMKYALPHELLTIIKEVITSCQSIDSVPEYNTEDIWFQFALLILEKKTGHVFNKTSTLTYMPWERKLQWTNEQIQSAKKGENIPVNKFIINSITL
modifications: aqueous solution
On to B1, for which the specific activity in series [1] came to 0.15 U/mL.

B2: starch synthase aqueous solution (B-4): starch synthase, SEQ ID NO: 13, derived from Saccharomyces cerevisiae (protein, listed as Saccharomyces cerevisiae)
chain: MSRDLQNHLLFETATEVANRVGGIYSVLKSKAPITVAQYKDHYHLIGPLNKATYQNEVDILDWKKPEAFSDEMRPVQHALQTMESRGVHFVYGRWLIEGAPKVILFDLDSVRGYSNEWKGDLWSLVGIPSPENDFETNDAILLGYTVAWFLGEVAHLDSQHAIVAHFHEWLAGVALPLCRKRRIDVVTIFTTHATLLGRYLCASGSFDFYNCLESVDVDHEAGRFGIYHRYCIERAAAHSADVFTTVSQITAFEAEHLLKRKPDGILPNGLNVIKFQAFHEFQNLHALKKEKINDFVRGHFHGCFDFDLDNTLYFFIAGRYEYKNKGADMFIEALARLNYRLKVSGSKKTVVAFIVMPAKNNSFTVEALKGQAEVRALENTVHEVTTSIGKRIFDHAIRYPHNGLTTELPTDLGELLKSSDKVMLKRRILALRRPEGQLPPIVTHNMVDDANDLILNKIRQVQLFNSPSDRVKMIFHPEFLNANNPILGLDYDEFVRGCHLGVFPSYYEPWGYTPAECTVMGVPSITTNVSGFGAYMEDLIETNQAKDYGIYIVDRRFKAPDESVEQLVDYMEEFVKKTRRQRINQRNRTERLSDLLDWKRMGLEYVKARQLALRRGYPDQFRELVGEELNDSNMDALAGGKKLKVARPLSVPGSPRDLRSNSTVYMTPGDLGTLQEVNNADDYFSLGVNPAADDDDDGPYADDS
In series [2], B2 came in with a specific activity of 0.15 U/μL.

B3: hyaluronan synthase aqueous solution (B-1): FLAG-tagged hyaluronan synthase, SEQ ID NO: 1, from Streptococcus equisimilis, expressed in E. coli (protein)
chain: MPIFKKTLIVLSFIFLISILIYLNMYLFGTSTVGIYGVILITYLVIKLGLSFLYEPFKGNPHDYKVAAVIPSYNEDAESLLETLKSVLAQTYPLSEIYIVDDGSSNTDAIQLIEEYVNREVDICRNVIVHRSLVNKGKRHAQAWAFERSDADVFLTVDSDTYIYPNALEELLKSFNDETVYAATGHLNARNRQTNLLTRLTDIRYDNAFGVERAAQSLTGNILVCSGPLSIYRREVIIPNLERYKNQTFLGLPVSIGDDRCLTNYAIDLGRTVYQSTARCDTDVPFQLKSYLKQQNRWNKSFFRESIISVKKILSNPIVALWTIFEVVMFMMLIVAIGNLLFNQAIQLDLIKLFAFLSIIFIVALCRNVHYMVKHPASFLLSPLYGILHLFVLQPLKLYSLCTIKNTEWGTRKKVTIFK
modifications: FLAG tag; aqueous solution; STREPTOCOCCUS
B3 had a specific activity in series [3] of 0.15 U/μL.

B4: uridine triphosphate-monosaccharide-1-phosphate uridylyltransferase aqueous solution (G-1): uridylyltransferase, SEQ ID NO: 10, derived from Arabidopsis (protein)
chain: MASTVDSNFFSSVPALHSNLGLLSPDQIELAKILLENGQSHLFQQWPELGVDDKEKLAFFDQIARLNSSYPGGLAAYIKTAKELLADSKVGKNPYDGFSPSVPSGENLTFGTDNFIEMEKRGVVEARNAAFVLVAGGLGERLGYNGIKVALPRETTTGTCFLQHYIESILALQEASNKIDSDGSERDIPFIIMTSDDTHSRTLDLLELNSYFGMKPTQVHLLKQEKVACLDDNDARLALDPHNKYSIQTKPHGHGDVHSLLYSSGLLHKWLEAGLKWVLFFQDTNGLLFNAIPASLGVSATKQYHVNSLAVPRKAKEAIGGISKLTHVDGRSMVINVEYNQLDPLLRASGFPDGDVNCETGFSPFPGNINQLILELGPYKDELQKTGGAIKEFVNPKYKDSTKTAFKSSTRLECMMQDYPKTLPPTARVGFTVMDIWLAYAPVKNNPEDAAKVPKGNPYHSATSGEMAIYRANSLILQKAGVKVEEPVKQVLNGQEVEVWSRITWKPKWGMIFSDIKKKVSGNCEVSQRSTMAIKGRNVFIKDLSLDGALIVDSIDDAEVKLGGLINNGWTMESVDYKDTSVPEEIRIRGFRFNKVEQLEKKLTQPGKFSVED
modifications: aqueous solution; Arabidopsis
As for B4, the “activity to produce uridine diphosphate-N-acetylglucosamine” value in series [4] is given as 0.1 U/mL. Moreover, the “activity to produce uridine diphosphate-glucuronic acid” value in series [5] is 5 U/μL.
